From patent EP3443010B1 come the findings set out here.

Where “and” joins values, the source holds several entries; their conditions need not be identical. Equal values may be shown once.

This assay has as its target recombinant hSIRPa (Sino Biologicals, reference 10975-H08H) (human) (UniProt P78324). Nature of the assay: ELISA, hSIRPa (Sino 10975-H08H) coated at 0.5 ug/ml, anti-mouse Fc detection.

recombinant hSIRPa (Sino Biologicals, reference 10975-H08H) (human), sequence (P78324 other isoform, or with tags, fused parts or gaps H08H H08H): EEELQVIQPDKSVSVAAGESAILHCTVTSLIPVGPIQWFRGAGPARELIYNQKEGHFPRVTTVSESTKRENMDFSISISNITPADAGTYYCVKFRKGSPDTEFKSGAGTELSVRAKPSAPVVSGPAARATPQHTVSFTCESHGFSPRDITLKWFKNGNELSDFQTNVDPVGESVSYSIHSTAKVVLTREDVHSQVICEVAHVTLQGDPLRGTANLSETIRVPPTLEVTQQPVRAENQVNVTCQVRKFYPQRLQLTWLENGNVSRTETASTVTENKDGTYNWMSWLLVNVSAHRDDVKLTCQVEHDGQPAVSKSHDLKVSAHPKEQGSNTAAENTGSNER

As usually defined, the EC50 is the concentration giving half of the maximal effect. In the case of SE5A5 (antibody), the EC50 was 0.16 nM and 0.024 µg/mL.
